The results in this text go back to patent publication US7744887B2, “Human antibodies interacting with HIV gp41” (priority 2004, dated 2010).

In assay [1] the test system is HIV-1 (envelope from strain HXB2). Briefly: HIV Reporter Particle (HIVRP) assay. The format is cell-based. As to conditions: envelope from strain HXB2, purified scFvs.
Assay [2] has as its system CXCR4-tropic HIV-1 strain HXB2. Type of assay: cell-based. As to conditions: for effect on HIV-HXB2 replication: single cycle infectivity assay, FIG. 9.
The test system of assay [3] is CCR5-tropic strain BaL. The format is cell-based, HIV-1.
Assay [4] deals with HIV particles pseudotyped with the surface protein of the Vesicular Stomatitis Virus (VSV-G). Type of assay: cell-based.
The subject of assay [5] is dual tropic strain (CCR5 and CXCR4) HIV 89.6. The format is cell-based, HIV-1.
The subject of assay [6] is IQN17. Briefly: ALPHASCREEN D5 IgG/IQN17 binding assay. Also on record: species or system HIV-1.
The target of assay [7] is T1, 5-Helix (Human immunodeficiency virus type 1 group M subtype B, UniProt P04578, C598G/DEL583-596/DEL601-623/N624G). As to conditions: Biacore, peptide 5-Helix. The source says:
(§1) Affinity of D5 IgG for the hydrophobic pocket of HR1—The affinity of D5 IgG for various peptides was next determined by surface plasmon resonance (Biacore).

The target of assay [8] is IZN17. Briefly: Surface plasmon resonance (Biacore), IZN17. The format is binding, HIV-1. The conditions noted are these: peptide IZN17.
From the text: as §1

For assay [9], the target named is IZN17-G572D. In words: Surface plasmon resonance (Biacore), IZN17-G572D. The format is binding, HIV-1. As to conditions: peptide IZN17-G572D.
From the text: as §1

Assay [10] deals with IZN17-L565M. In words: Surface plasmon resonance (Biacore), IZN17-L565M. The format is binding, HIV-1. The conditions noted are these: peptide IZN17-L565M.
From the text: as §1

The target of assay [11] is IZN17-Q567R. In words: Surface plasmon resonance (Biacore), IZN17-Q567R. The conditions noted are these: peptide IZN17-Q567R. Type of assay: binding, HIV-1.
From the text: as §1

Assay [12] deals with IQN17-2Pro. Briefly: Surface plasmon resonance (Biacore), IQN17-2Pro. Type of assay: binding, HIV-1. As to conditions: peptide IQN17-2Pro.
From the text: as §1

The target of assay [13] is T1, 5-Helix. As to conditions: ALPHASCREEN, FIG. 10.
Assay [14] addresses IZN36 (Human immunodeficiency virus type 1 group M subtype B, UniProt P04578). The conditions noted are these: ALPHASCREEN, FIG. 10.
Assay [15] deals with interaction of biotinylated IZN36 with C34-HA (Human immunodeficiency virus type 1 group M subtype B, UniProt P04578). The conditions noted are these: ALPHASCREEN, FIG. 15.
The test system of assay [16] is HIV strain MN-1. The format is cell-based, HIV-1. As to conditions: MN-1, single cycle infectivity assay.

B1: D5 scFv: human scFv from phage display, SEQ ID NO:2, VH and VL joined by (G4S)3 linker; binds gp41 HR1 hydrophobic pocket (protein)
scFv: QVQLVQSGAEVRKPGASVKVSCKASGDTFSSYAISWVRQAPGQGLEWMGGIIPIFGTANYAQKFQGRVTITADESTSTAYMELSSLRSEDTAIYYCARDNPTLLGSDYWGKGTLVTVSSGGGGSGGGGSGGGGSDIQMTQSPSTLSASIGDRVTITCRASEGIYHWLAWYQQKPGKAPKLLIYKASSLASGAPSRFSGSGSGTDFTLTISSLQPDDFATYYCQQYSNYPLTFGGGTKLEIK
modifications: Homo sapien
As to B1, the “ability to prevent HIV-1 entry” value in [1] was “capable of inhibiting HIV-1 entry”. The “effect on HIV-HXB2 replication” value in assay [2] is reported as “inhibited HIV—HXB2 replication”. The “effect on HIV-BaL replication” value in assay [3] (single cycle infectivity assay) is “inhibited replication of HIV-BaL”. The “prevention of infection by VSV-G pseudotyped particles” value in assay [4] was “Neither D5 nor X5 scFvs prevented infection”.

B2: B11 scFv: human scFv from phage display, SEQ ID NO:8, VH and VL joined by (G4S)3 linker; binds gp41 HR1 (protein)
scFv: QVQLVQSGAEVKKPGSSVKVSCKASGGTFSSYAISWVRQAPGQGLEWMGGIIPLFDTSNYAQNFQGRITITADKSTSTAYMELSSLRFEDTAIYYCARDNPLLLAMDVWGKGTTVTVSSGGGGSGGGGSGGGGSDIQMTQSPSTLSASIGDRVTITCRASEGIYHWLAWYQQKPGKAPKLLIYKASSLASGAPSRFSGSGSGTDFTLTISSLQPDDFATYYCQQYSNYPLTFGGGTKLEIK
modifications: Homo sapien
As for B2, the “ability to prevent HIV-1 entry” value in [1] is recorded as “capable of inhibiting HIV-1 entry”. Also, the “effect on HIV-HXB2 replication” value in [2] is recorded as “displayed anti-viral properties against the HIV—HXB2 strain”.

B3: D5 IgG: full length human IgG4/kappa carrying D5 VH (SEQ ID NO:4) and VL (SEQ ID NO:6) (antibody, V domains shown)
VH: QVQLVQSGAEVRKPGASVKVSCKASGDTFSSYAISWVRQAPGQGLEWMGGIIPIFGTANYAQKFQGRVTITADESTSTAYMELSSLRSEDTAIYYCARDNPTLLGSDYWGKGTLVTVSS
VL: DIQMTQSPSTLSASIGDRVTITCRASEGIYHWLAWYQQKPGKAPKLLIYKASSLASGAPSRFSGSGSGTDFTLTISSLQPDDFATYYCQQYSNYPLTFGGGTKLEIK
modifications: human IgG4/kappa constant regions; Homo sapien
On to B3, for which, in assay [3] (BaL versus HXB2), the “fold more sensitive than HXB2” value is “approximately 3 fold”. The “fold less susceptible to neutralization than HXB2” value in assay [5] (89.6 versus HXB2) was “approximately 6 fold”. For the same molecule, the 50% inhibitory concentration (IC50) entry in [4] is “Not active”. Moreover, in assay [6], the “interaction with biotinylated IQN17” value is reported as “evident interaction”. Further, the Off is on record as 1.0e−4 1/S in [7]; 5.9e−4 1/S in assay [8]; 3.0e−3 1/S in [9]; 8.9e−4 1/S in assay [10]; 1.2e−3 1/S in assay [11]; 2.2e−3 1/S in assay [12]. Further, the On turned out to be 390000 M⁻¹ s⁻¹ in assay [7]; 6.1e+06 M⁻¹ s⁻¹ in assay [8]; 5500 M⁻¹ s⁻¹ in assay [9]; 3e+06 M⁻¹ s⁻¹ in assay [10]; 800000 M⁻¹ s⁻¹ in assay [11]; 9000 M⁻¹ s⁻¹ in assay [12]. The Kd in [8] turned out to be 0.1 nM; in [9], 550 nM; in assay [10] it was 0.3 nM; in assay [11] it was 1.5 nM; in assay [12], 240 nM. For the same molecule, in assay [13], the “interaction with biotinylated 5-Helix” value is given as “clear interaction”. For the same molecule, in assay [14], the “interaction with biotinylated IZN36” value was “clear interaction”. In addition, the “effect on the interaction of C34-HA with IZN36” value in assay [15] was “prevented the interaction of C34-HA with IZN36”.

B4: B11 IgG: full length human IgG1/kappa carrying B11 VH (SEQ ID NO:10) and VL (SEQ ID NO:12) (antibody, V domains shown)
VH: QVQLVQSGAEVKKPGSSVKVSCKASGGTFSSYAISWVRQAPGQGLEWMGGIIPLFDTSNYAQNFQGRITITADKSTSTAYMELSSLRFEDTAIYYCARDNPLLLAMDVWGKGTTVTVSS
VL: B3 VL
modifications: human IgG1/kappa constant regions; Homo sapien
Turning to B4, the IC50 was 290 nM in assay [2] (HIV-HXB2, single cycle infectivity assay); 73 nM in [3] (HIV-BaL, single cycle infectivity assay); 943 nM in [5] (HIV 89.6, single cycle infectivity assay); 244 nM in assay [16].
